To fix the notation:
B1: Profilin-2 (natural protein)
chain: MAGWQSYVDNLMCDGCCQEAAIVGYCDAKYVWAATAGGVFQSITPVEIDMIVGKDREGFFTNGLTLGAKKCSVIRDSLYVDGDCTMDIRTKSQGGEPTYNVAVGRAGRVLVFVMGKEGVHGGGLNKKAYSMAKYLRDSGF
B2: 14-3-3 protein beta/alpha (natural protein)
chain: MTMDKSELVQKAKLAEQAERYDDMAAAMKAVTEQGHELSNEERNLLSVAYKNVVGARRSSWRVISSIEQKTERNEKKQQMGKEYREKIEAELQDICNDVLELLDKYLILNATQAESKVFYLKMKGDYFRYLSEVASGENKQTTVSNSQQAYQEAFEISKKEMQPTHPIRLGLALNFSVFYYEILNSPEKACSLAKTAFDEAIAELDTLNEESYKDSTLIMQLLRDNLTLWTSENQGDEGDAGEGEN
B3: 14-3-3 protein eta (natural protein)
chain: MGDREQLLQRARLAEQAERYDDMASAMKAVTELNEPLSNEDRNLLSVAYKNVVGARRSSWRVISSIEQKTMADGNEKKLEKVKAYREKIEKELETVCNDVLALLDKFLIKNCNDFQYESKVFYLKMKGDYYRYLAEVASGEKKNSVVEASEAAYKEAFEISKEHMQPTHPIRLGLALNFSVFYYEIQNAPEQACLLAKQAFDDAIAELDTLNEDSYKDSTLIMQLLRDNLTLWTSDQQDEEAGEGN
B4: 14-3-3 protein theta (natural protein)
chain: MEKTELIQKAKLAEQAERYDDMATCMKAVTEQGAELSNEERNLLSVAYKNVVGGRRSAWRVISSIEQKTDTSDKKLQLIKDYREKVESELRSICTTVLELLDKYLIANATNPESKVFYLKMKGDYFRYLAEVACGDDRKQTIENSQGAYQEAFDISKKEMQPTHPIRLGLALNFSVFYYEILNNPELACTLAKTAFDEAIAELDTLNEDSYKDSTLIMQLLRDNLTLWTSDSAGEECDAAEGAEN
B5: Guanine deaminase (natural protein)
chain: MCAARTPPLALVFRGTFVHSTWTCPMEVLRDHLLGVSDSGKIVFLEESSQQEKLAKEWCFKPCEIRELSHHEFFMPGLVDTHIHAPQYAFAGSNVDLPLLEWLNKYTFPTEQRFRSTDVAEEVYTRVVRRTLKNGTTTACYFGTIHTDSSLILAEITDKFGQRAFVGKVCMDLNDTVPEYKETTEESVKETERFVSEMLQKNYPRVKPIVTPRFTLSCTETLMSELGNIAKTHDLYIQSHISENREEIEAVKSLYPSYKNYTDVYDKNNLLTNKTVMAHGCYLSEEELNIFSERGASIAHCPNSNLSLSSGLLNVLEVLKHKVKIGLGTDVAGGYSYSMLDAIRRAVMVSNVLLINKVNEKNLTLKEVFRLATLGGSQALGLDSEIGNFEVGKEFDALLINPRASDSPIDLFYGDFVGDISEAVIQKFLYLGDDRNIEEVYVGGKQVVPFSSSV
B6: WD repeat-containing protein 1 (natural protein)
chain: MPYEIKKVFASLPQVERGVSKILGGDPKGDHFLYTNGKCVILRNIDNPAIADIYTEHAHQVVVAKYAPSGFYIASGDISGKLRIWDTTQKEHLLKYEYQPFAGKIKDIAWTEDSKRIAVVGEGREKFGAVFLWDTGSSVGEITGHNKVINSVDIKQTRPYRLATGSDDNCAAFFEGPPFKFKFTIGDHSRFVNCVRFSPDGNRFATASADGQIFIYDGKTGEKVCALGESKAHDGGIYAISWSPDSTHLLSASGDKTSKIWDVNVNSVVSTFPMGSNVLDQQLGCLWQKDHLLSISLSGYINYLDKNNPSKPLRVIKGHSKSIQCLTVHRNGGKSYIYSGSHDGHINYWDSETGENDSFSGKGHTNQVSRMTVNESEQLVSCSMDDTVRYTNLTLRDYSGQGVVKLDVQPKCVAVGPGGYTVVVCIGQIVLLKDQKKCFSIDNPGYEPEVVAVHPGGDTVAVGGTDGNVRVYSILASTLKDEGKLLEAKGPVTDVAYSHDGAFLAVCDASKVVTVFSVADGYSENNVFYGHHAKIVCLAWSPDNEHFASGGMDMMVYVWTLSDPETKVKIQDAHRLHHVSSLAWLDEHTLVTTSHDASVKEWTITY
B7: CaM kinase-like vesicle-associated protein (natural protein)
chain: MPFGCVTLGDKKNYNQPSEVTDRYDLGQVIKTEEFCEIFRAKDKTTGKLHTCKKFQKRDGRKVRKAAKNEIGILKMVKHPNILQLVDVFVTRKEYFIFLELATGREVFDWILDQGYYSERDTSNVVRQVLEAVAYLHSLKIVHRNLKLENLVYYNRLKNSKIVISDFHLAKLENGLIKEPCGTPEYLAPEVVGRQRYGRPVDCWAIGVIMYILLSGNPPFYEEVEEDDYENHDKNLFRKILAGDYEFDSPYWDDISQAAKDLVTRLMEVEQDQRITAEEAISHEWISGNAASDKNIKDGVCAQIEKNFARAKWKKAVRVTTLMKRLRAPEQSGTAATQSASDAATPGAAGGAIAAAAAAAAAGGAASASGASATAATEGGAGCAAKSDDIASADRSATPATDGSATPATDGSVTPATDGSITPATDGSVTPATDRSATPATDGRATPATEESTVPATQSSALPAAKAAATPEPAVAQPDSTALEGATGQAPPSSKGEEATGCAQESQRVETS

In the test the target is GST-LRRK2 WD40 G2385R (human) (UniProt Q5S007). Kind of test: affinity purification with mass spectrometry; 5 µg GST fusion protein on glutathione-Sepharose incubated with adult mouse brain lysate or crude SV fraction (LP2) (1 mg protein) 2 h at 4 °C; washes 150 mM NaCl, 2 mM EDTA, 50 mM Tris-HCl, 0.2% Triton, pH 7.4; LC-MS/MS with label-free quantification, 4 samples per condition (GST-control, GST-WD40, GST-WD40-G2385R).
GST-LRRK2 WD40 G2385R (human), sequence (Q5S007 whole entry G2385R, the tested form may be a part): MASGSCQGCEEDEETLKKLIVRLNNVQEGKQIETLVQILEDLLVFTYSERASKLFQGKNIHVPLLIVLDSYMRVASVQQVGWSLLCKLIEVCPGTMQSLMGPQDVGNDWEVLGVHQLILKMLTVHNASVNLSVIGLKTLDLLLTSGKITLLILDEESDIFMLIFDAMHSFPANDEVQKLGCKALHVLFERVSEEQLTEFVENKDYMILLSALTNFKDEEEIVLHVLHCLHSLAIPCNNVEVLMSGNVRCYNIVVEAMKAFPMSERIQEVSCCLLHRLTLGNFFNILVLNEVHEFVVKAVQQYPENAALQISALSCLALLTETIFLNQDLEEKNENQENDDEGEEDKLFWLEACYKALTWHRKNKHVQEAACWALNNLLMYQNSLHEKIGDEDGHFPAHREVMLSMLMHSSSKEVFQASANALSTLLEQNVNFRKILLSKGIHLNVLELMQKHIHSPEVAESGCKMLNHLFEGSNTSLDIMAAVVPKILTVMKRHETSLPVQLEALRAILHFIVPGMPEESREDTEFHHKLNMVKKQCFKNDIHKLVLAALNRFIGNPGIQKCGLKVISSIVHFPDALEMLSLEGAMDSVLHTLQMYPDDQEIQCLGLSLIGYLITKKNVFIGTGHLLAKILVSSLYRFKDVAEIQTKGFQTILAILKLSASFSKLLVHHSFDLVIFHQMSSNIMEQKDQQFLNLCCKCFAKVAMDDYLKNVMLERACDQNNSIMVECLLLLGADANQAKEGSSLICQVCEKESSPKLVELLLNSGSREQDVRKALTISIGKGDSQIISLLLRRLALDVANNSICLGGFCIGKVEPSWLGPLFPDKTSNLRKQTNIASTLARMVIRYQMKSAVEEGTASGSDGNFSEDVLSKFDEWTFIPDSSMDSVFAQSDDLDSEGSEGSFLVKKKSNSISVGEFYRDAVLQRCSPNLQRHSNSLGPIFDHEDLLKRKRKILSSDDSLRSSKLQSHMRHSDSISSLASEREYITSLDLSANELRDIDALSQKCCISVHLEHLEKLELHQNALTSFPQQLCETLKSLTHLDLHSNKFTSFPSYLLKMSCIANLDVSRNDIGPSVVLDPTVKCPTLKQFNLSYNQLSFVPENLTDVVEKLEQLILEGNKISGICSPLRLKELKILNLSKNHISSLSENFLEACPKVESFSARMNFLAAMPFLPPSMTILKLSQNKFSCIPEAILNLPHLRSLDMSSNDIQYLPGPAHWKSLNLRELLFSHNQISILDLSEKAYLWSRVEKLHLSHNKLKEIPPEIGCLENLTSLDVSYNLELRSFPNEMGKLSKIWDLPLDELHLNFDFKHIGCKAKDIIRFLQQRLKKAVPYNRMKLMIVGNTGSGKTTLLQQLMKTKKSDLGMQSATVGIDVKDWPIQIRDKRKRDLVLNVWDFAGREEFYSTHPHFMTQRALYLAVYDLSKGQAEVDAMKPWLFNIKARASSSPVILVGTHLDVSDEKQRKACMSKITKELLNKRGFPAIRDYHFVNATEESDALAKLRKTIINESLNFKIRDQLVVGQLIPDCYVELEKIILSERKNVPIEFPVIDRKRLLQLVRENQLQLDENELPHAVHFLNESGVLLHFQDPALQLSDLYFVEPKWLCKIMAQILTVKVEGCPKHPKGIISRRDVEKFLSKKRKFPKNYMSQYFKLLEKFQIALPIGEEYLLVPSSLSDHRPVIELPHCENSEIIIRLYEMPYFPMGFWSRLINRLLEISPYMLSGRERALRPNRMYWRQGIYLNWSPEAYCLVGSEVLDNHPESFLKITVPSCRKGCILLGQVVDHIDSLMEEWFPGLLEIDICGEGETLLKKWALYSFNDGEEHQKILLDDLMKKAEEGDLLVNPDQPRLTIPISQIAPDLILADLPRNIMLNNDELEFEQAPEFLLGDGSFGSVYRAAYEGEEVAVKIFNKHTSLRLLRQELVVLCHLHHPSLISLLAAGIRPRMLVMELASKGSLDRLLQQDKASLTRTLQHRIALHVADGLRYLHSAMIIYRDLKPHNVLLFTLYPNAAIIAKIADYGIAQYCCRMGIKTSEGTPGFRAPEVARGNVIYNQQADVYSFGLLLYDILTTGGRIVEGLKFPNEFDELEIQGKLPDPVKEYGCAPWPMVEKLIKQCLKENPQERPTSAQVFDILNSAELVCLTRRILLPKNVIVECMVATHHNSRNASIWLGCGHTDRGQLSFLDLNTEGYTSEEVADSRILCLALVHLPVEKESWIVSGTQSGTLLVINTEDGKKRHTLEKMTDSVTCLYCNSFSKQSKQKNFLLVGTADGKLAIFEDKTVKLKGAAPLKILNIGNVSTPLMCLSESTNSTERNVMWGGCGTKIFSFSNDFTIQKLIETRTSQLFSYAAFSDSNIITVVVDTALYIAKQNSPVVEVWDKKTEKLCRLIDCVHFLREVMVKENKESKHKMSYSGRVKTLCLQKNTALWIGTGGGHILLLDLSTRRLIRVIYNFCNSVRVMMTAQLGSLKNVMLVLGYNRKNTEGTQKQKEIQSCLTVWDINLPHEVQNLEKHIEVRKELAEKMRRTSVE
As for B1, the G2385R/WT (ratio of abundance in G2385R versus wild-type bait) is 0.37.
As to B2, the G2385R/WT (ratio of abundance in G2385R versus wild-type bait) was determined as 0.37.
Take B3: the G2385R/WT (ratio of abundance in G2385R versus wild-type bait) was 0.52.
For B4, the G2385R/WT (ratio of abundance in G2385R versus wild-type bait) is 0.35.
Consider B5, for which the G2385R/WT (ratio of abundance in G2385R versus wild-type bait) worked out at 0.15.
Turning to B6, the G2385R/WT (ratio of abundance in G2385R versus wild-type bait) was 0.34.
B7: the G2385R/WT (ratio of abundance in G2385R versus wild-type bait) was determined as 0.58.

The values above are taken from publication PMC5511190.
